From patent US20170022291A1 (Adimab, published 2017)
Read-outs that look alike come from different tables or passages of the source.

Columns and labels:
[1] = molecular target: T1, Human Epidermal Growth Factor Receptor 3 (HER3), soluble antigen (human, UniProt P21860 20-643, limits assumed); assay: affinity of the HER3 binding region in the IgG-Fab; method not named on the sheet or in the legend
T1 construct: also called b-HER3; b-HER3-HIS

[2] = molecular target: T2, EGFR (UniProt P00533 25-645, limits assumed); assay: affinity of the EGFR binding region in the IgG-Fab; method not named on the sheet or in the legend
T2 construct: also called Antigen 1

[3] = molecular target: T2, EGFR; assay: as above; remark: listed apart in the source
[4] = molecular target: T3, Human Epidermal Growth Factor Receptor 2 (HER2), soluble antigen (human, UniProt P04626 23-652, limits assumed); assay: affinity of the HER2 binding region in the IgG-Fab; method not named on the sheet or in the legend
T3 construct: also called b-HER2; b-HER2-HIS

| Binder | Kd [1] [pM] | Kd [2] [pM] | Kd [3] [pM] | Kd [4] [pM] |
| --- | --- | --- | --- | --- |
| N-terminal EGFR::C-terminal HER3 multispecific antibody analog (Analog 3) (bispecific antibody, human IgG1, kappa, IgG-Fab 2+2 format: EGFR VH-CH1-hinge-CH2-CH3-(G4S)3-HER3 VH-CH1, two copies, with four copies of the common light chain; also called N-term-EGFR::C-term-HER3; EGFR-HER3 IgG-Fab) heavy: not shown light: DIQLTQSPSSVSASVGDRVTITCRASQDISSWLAWYQQKPGKAPKLLIYAASSLQSGVPSRFSGSGSGTDFTLTISSLQPEDFATYYCQQEHDFPWTFGGGTKVEIKRTVAAPSVFIFPPSDEQLKSGTASVVCLLNNFYPREAKVQWKVDNALQSGNSQESVTEQDSKDSTYSLSSTLTLSKADYEKHKVYACEVTHQGLSSPVTKSFNRGEC | 49 | 290 |  |  |
| N-terminal HER2::C-terminal EGFR multispecific antibody analog (Analog 2) (bispecific antibody, human IgG1, kappa, IgG-Fab 2+2 format: HER2 VH-CH1-hinge-CH2-CH3-(G4S)3-EGFR VH-CH1, two copies, with four copies of the common light chain; also called N-term-HER2::C-term-EGFR; HER2-EGFR IgG-Fab) heavy: not shown light: DIQLTQSPSTLSASVGDRVTITCRASQAISSWLAWYQQKPGKAPKLLIYDASSLESGVPSRFSGSGSGTEFTLTISSLQPDDFATYYCHQYQSYSWTFGGGTKVEIKRTVAAPSVFIFPPSDEQLKSGTASVVCLLNNFYPREAKVQWKVDNALQSGNSQESVTEQDSKDSTYSLSSTLTLSKADYEKHKVYACEVTHQGLSSPVTKSFNRGEC |  |  | 470 | 100 |

The next lines start with the values.

| Kd [1] [pM] | Kd [2] [pM] | Kd [3] [pM] | Kd [4] [pM] | Binder |
| --- | --- | --- | --- | --- |
| 49 | 870 |  |  | N-terminal HER3::C-terminal EGFR multispecific antibody analog (Analog 4) (bispecific antibody, human IgG1, kappa, IgG-Fab 2+2 format: HER3 VH-CH1-hinge-CH2-CH3-(G4S)3-EGFR VH-CH1, two copies, with four copies of the common light chain; also called N-term-HER3::C-term-EGFR; HER3-EGFR IgG-Fab) heavy: not shown light: DIQLTQSPSSVSASVGDRVTITCRASQDISSWLAWYQQKPGKAPKLLIYAASSLQSGVPSRFSGSGSGTDFTLTISSLQPEDFATYYCQQEHDFPWTFGGGTKVEIKRTVAAPSVFIFPPSDEQLKSGTASVVCLLNNFYPREAKVQWKVDNALQSGNSQESVTEQDSKDSTYSLSSTLTLSKADYEKHKVYACEVTHQGLSSPVTKSFNRGEC |
|  |  | 170 | 8200 | N-terminal-EGFR::C-terminal HER2 multispecific antibody analog (Analog 1) (bispecific antibody, IgG-Fab 2+2 format: EGFR VH-CH1-hinge-CH2-CH3-(G4S)3-HER2 VH-CH1, two copies, with four copies of the common light chain; also called N-term-EGF::C-term-HER2; EGFR-HER2 IgG-Fab) heavy: not shown light: DIQLTQSPSTLSASVGDRVTITCRASQAISSWLAWYQQKPGKAPKLLIYDASSLESGVPSRFSGSGSGTEFTLTISSLQPDDFATYYCHQYQSYSWTFGGGTKVEIKRTVAAPSVFIFPPSDEQLKSGTASVVCLLNNFYPREAKVQWKVDNALQSGNSQESVTEQDSKDSTYSLSSTLTLSKADYEKHKVYACEVTHQGLSSPVTKSFNRGEC |
